Measured values as given in patent publication US20230190943A1, “ALGINIC ACID DERIVATIVE BONDED TO NONSTEROIDAL ANTI-INFLAMMATORY COMPOUND” (MOCHIDA PHARMACEUTICAL CO., LTD., priority 2018, published 2023).

Experiments:
[1] = tested on: Rat 1% Silver Nitrate-Induced Pain Model; assay: Intra-articular administration in rat 1% silver nitrate-induced pain model, gait pain score (Example 24); type: in vivo; conditions: for average pain score: scale 0-3, 0.1 mL/kg into left hindlimb knee joint
Procedure: Rats (Crj: SD system (SPF), male, 6 weeks of age) were anesthetized, and a 1% silver nitrate solution was administered into the left hindlimb knee joint cavity at a dose of 50 µL/joint.
The gait state of the rats on the day after the model was created was evaluated by scoring. The rats were divided into groups based on the obtained scores, and under inhalation anesthesia with isoflurane, each test substance was administered at 0.1 mL/kg into the rat left hindlimb knee joint (n = 8).
The gait score was given once a day for 5 days from the day on which test substance was administrated. Note that, as the score on the first day, the score before administration (grouping) was used. Under the blind, the gait state of each group was visually observed using the following pain score table based on the gait state.
The results are shown by the average pain score on Table 16. • 0: Normal • 1: mild claudication with lifting the foot • 2: severe claudication with completely closing the toe • 3: walking on three legs

[2] = Release test of free diclofenac, felbinac, ketoprofen or naproxen in sodium phosphate buffer (Example 23); type: physicochemical
Procedure: (§1) (set temperature of air conditioner). After confirming that no gel was formed, this solution was dispensed. Immediately after the dissolution, the amount of free diclofenac present in each solution was measured by LC-MS/MS as an initial state (day 0 of storage). Also, the other dispensed solutions were incubated at 37° C. for 1, 3, and 7 days, and then the amount of free diclofenac was measured. […] The MS conditions are as follows. • Ionization mode: ESI-negative • Ion source temperature: 300 degrees • Capillary voltage: -4000 V

[3] = rabbit, in vivo
Procedure: For each test substance, 4 rabbits were used, the whole body was fixed with a towel under no anesthesia, the area around the left knee j oint was wiped with alcohol, and then 0.1 mL/kg of each of the above test substances was administered into the j oint cavity from the outside of the rabbit knee using a Terumo 1 mL syringe equipped with a 26 G injection needle (manufactured by Terumo).
Rabbits were exsanguinated and killed under combined anesthesia by intramuscular administration of ketamine hydrochloride and xylazine. The joint capsule was incised just below the patella to expose the knee joint cavity, and the inside of the joint cavity was washed with 2 mL of physiological saline using a catheter with a Surflo indwelling needle 20 G, and the synovial fluid mixed with physiological saline was collected. The amount of DF in the recovered synovial fluid was measured by the following procedure.
The synovial tissue was separated and collected from the knee joint after collecting the synovial fluid in (2) above. The collected synovial tissue was washed with physiological saline to remove the attached synovial fluid. After removing the patella, the synovial tissue was placed in a tube, and the tissue was cut into small pieces with scissors. […] The same extraction operation as in (2) above was performed, and the amount of free diclofenac was measured using LC-MS/MS.

[4] = Release test of free diclofenac from conjugates in 20 mM sodium phosphate buffer, 37°C (Example 11); type: physicochemical; conditions: for Release Rate in Release Test at pH 5.3: pH 5.3, 37°C; for Release Rate in Release Test at pH 5.3 / Release Rate in Release Test at pH 7.0: free diclofenac; for Release Rate in Release Test at pH 7.0: pH 7.0, 37°C
Procedure: as §1

[5] = Day 1 (score before administration, grouping)
[6] = pH 5.3, day 1, free drug (diclofenac, felbinac, ketoprofen or naproxen)
[7] = pH 5.3, day 3, free drug (diclofenac, felbinac, ketoprofen or naproxen)
[8] = pH 5.3, day 7, free drug (diclofenac, felbinac, ketoprofen or naproxen)
[9] = pH 7.0, day 1, free drug (diclofenac, felbinac, ketoprofen or naproxen)
[10] = pH 7.0, day 3, free drug (diclofenac, felbinac, ketoprofen or naproxen)
[11] = pH 7.0, day 7, free drug (diclofenac, felbinac, ketoprofen or naproxen)

With `O=C([O-])Cc1ccccc1Nc1c(Cl)cccc1Cl.[Na+]` [DF, Diclofenac Na, reference compound] the average pain score [1, 5] was 2.5, the average pain score ([1]; Day 2) was 1.9 and the average pain score ([1]; Day 3) was 1.9. The average pain score ([1]; Day 4) was 1.0 and the average pain score ([1]; Day 5) was 0.8.
With “Diclofenac-(2-Amino-1-(4-Hydroxypiperidin-1-Yl)Ethan-1-One)-Alginic Acid Derivative [Compound 63a]” the “Release Rate in Release Test at pH 5.3” value [2, 6] was 0.0%, the “Release Rate in Release Test at pH 5.3” value [2, 7] was 0.2% and the “Release Rate in Release Test at pH 5.3” value [2, 8] was 0.2%. For the same molecule, the “Release Rate in Release Test at pH 7.0” value [2, 9] was 0.3%, the “Release Rate in Release Test at pH 7.0” value [2, 10] was 0.8% and the “Release Rate in Release Test at pH 7.0” value [2, 11] was 2.2%. The “DF retained in the synovial tissue continuously until ... after administration” value [3] was at least 84 days.
With “Diclofenac-(2-Amino-N-(2-Hydroxyethyl)Acetamide)-Alginic Acid Derivative [Compound 53b]” the “Release Rate in Release Test at pH 5.3” value [2, 6] was 0.6%, the “Release Rate in Release Test at pH 5.3” value [2, 7] was 0.8% and the “Release Rate in Release Test at pH 5.3” value [2, 8] was 1.0%. For the same molecule, the “Release Rate in Release Test at pH 7.0” value [2, 9] was 0.9%, the “Release Rate in Release Test at pH 7.0” value [2, 10] was 2.3% and the “Release Rate in Release Test at pH 7.0” value [2, 11] was 6.4%. For the same molecule, the average pain score [1, 5] was 2.5, the average pain score ([1]; Day 2) was 1.0 and the average pain score ([1]; Day 3) was 0.9. For the same molecule, the average pain score ([1]; Day 4) was 0.5, the average pain score ([1]; Day 5) was 0.4 and the “degree of pain relief (recovery from pain)” value ([1]; compared with diclofenac, alginic acid and diclofenac + alginic acid administration groups) was “faster”. The “DF retained in the synovial tissue continuously until ... after administration” value [3] was at least 84 days.
With “Diclofenac-(3-Amino-2,2-Difluoropropan-1-Ol)-Alginic Acid Derivative [Compound 36]” the “Release Rate in Release Test at pH 5.3” value ([4]; Day 1, 0.1% w/w conjugate) was 0.0%, the “Release Rate in Release Test at pH 5.3” value ([4]; Day 3, 0.1% w/w conjugate) was 0.5% and the “Release Rate in Release Test at pH 5.3” value ([4]; Day 7, 0.1% w/w conjugate) was 1.0%. The “Release Rate in Release Test at pH 7.0” value ([4]; Day 1, 0.1% w/w conjugate) was 1.2%, the “Release Rate in Release Test at pH 7.0” value ([4]; Day 3, 0.1% w/w conjugate) was 8.8% and the “Release Rate in Release Test at pH 7.0” value ([4]; Day 7, 0.1% w/w conjugate) was 12.9%.
In the case of “Diclofenac-(2-Aminoethanol)-Alginic Acid Derivative [Compound 5b]”, the “Release Rate in Release Test at pH 5.3” value ([4]; Day 1, 0.1% w/w conjugate) is reported as 0.0%, the “Release Rate in Release Test at pH 5.3” value ([4]; Day 3, 0.1% w/w conjugate) is reported as 0.0% and the “Release Rate in Release Test at pH 5.3” value ([4]; Day 7, 0.1% w/w conjugate) is reported as 0.3%. The “Release behaviour in the release test at pH 7.0 (in words)” value ([4]; pH 7.0) was “stably released”, the “Release Rate in Release Test at pH 7.0” value ([4]; Day 1, 0.1% w/w conjugate) was 0.1% and the “Release Rate in Release Test at pH 7.0” value ([4]; Day 3, 0.1% w/w conjugate) was 2.1%. The “Release Rate in Release Test at pH 7.0” value ([4]; Day 7, 0.1% w/w conjugate) was 5.0%.
With “Diclofenac-(Threonine Ethyl Ester)-Alginic Acid Derivative [Compound 24]” the “Release Rate in Release Test at pH 5.3” value ([4]; Day 1, 0.1% w/w conjugate) was 0.0%, the “Release Rate in Release Test at pH 5.3” value ([4]; Day 3, 0.1% w/w conjugate) was 0.0% and the “Release Rate in Release Test at pH 5.3” value ([4]; Day 7, 0.1% w/w conjugate) was 0.0%. For the same molecule, the “Release Rate in Release Test at pH 7.0” value ([4]; Day 1, 0.1% w/w conjugate) was 0.0%, the “Release Rate in Release Test at pH 7.0” value ([4]; Day 3, 0.1% w/w conjugate) was 1.4% and the “Release Rate in Release Test at pH 7.0” value ([4]; Day 7, 0.1% w/w conjugate) was 5.4%.
